{"source": "patent US20190099470A1", "about": "(UNIVERSITY OF VERMONT AND STATE AGRICULTURAL COLLEGE, published 2019)", "binders": {"B1": {"name": "His-tagged human MAVS-C79F expressed in MAVS-deficient MEFs (other, not shown: small tags and cut ends)", "chain": "MPFAEDKTYKYICRNFSNFCNVDVVEILPYLPCLTARDQDRLRATCTLSGNRDTLWHLFNTLQRRPGWVEYFIAALRGFELVDLADEVASVYQSYQPRTSDRPPDPLEPPSLPAERPGPPTPAAAHSIPYNSCREKEPSYPMPVQETQAPESPGENSEQALQTLSPRAIPRNPDGGPLESSSDLAALSPLTSSGHQEQDTELGSTHTAGATSSLTPSRGPVSPSVSFQPLARSTPRASRLPGPTGSVVSTGTSFSSSSPGLASAGAAEGKQGAESDQAEPIICSSGAEAPANSLPSKVPTTLMPVNTVALKVPANPASVSTVPSKLPTSSKPPGAVPSNALTNPAPSKLPINSTRAGMVPSKVPTSMVLTKVSASTVPTDGSSRNEETPAAPTPAGATGGSSAWLDSSSENRGLGSELSKPGVLASQVDSPFSGCFEDLAISASTSLGMGPCHGPEENEYKSEGTFGIHVAENPSIQLLEGNPGPPADPDGGPRPQADRKFQEREVPCHRPSPGALWLQVAVTGVLVVTLLVVLYRRRLH", "notes": "Expressed from vector pIRES in MAVS-KO MEFs; also called C79F variant; MAVS-C79F SNP"}, "B2": {"name": "Homo sapiens mitochondrial antiviral signaling protein (MAVS), endogenous wild-type, as oligomers in human PBMC and in plasma of SLE patients (other)", "chain": "PFAEDKTYKYICRNFSNFCNVDVVEILPYLPCLTARDQDRLRATCTLSGNRDTLWHLFNTLQRRPGWVEYFIAALRGCELVDLADEVASVYQSYQPRTSDRPPDPLEPPSLPAERPGPPTPAAAHSIPYNSCREKEPSYPMPVQETQAPESPGENSEQALQTLSPRAIPRNPDGGPLESSSDLAALSPLTSSGHQEQDTELGSTHTAGATSSLTPSRGPVSPSVSFQPLARSTPRASRLPGPTGSVVSTGTSFSSSSPGLASAGAAEGKQGAESDQAEPIICSSGAEAPANSLPSKVPTTLMPVNTVALKVPANPASVSTVPSKLPTSSKPPGAVPSNALTNPAPSKLPINSTRAGMVPSKVPTSMVLTKVSASTVPTDGSSRNEETPAAPTPAGATGGSSAWLDSSSENRGLGSELSKPGVLASQVDSPFSGCFEDLAISASTSLGMGPCHGPEENEYKSEGTFGIHVAENPSIQLLEGNPGPPADPDGGPRPQADRKFQEREVPCHRPSPGALWLQVAVTGVLVVTLLVVLYRRRLH", "notes": "Endogenous protein from donors; In some experiments labelled with Alx488 or Alx546; also called MAVS-WT; SLE MAVS oligomers"}}, "key": {"[1]": {"biological_target": "the molecule itself", "test": "self-oligomerization in reconstituted MAVS-KO MEFs; semi-denaturing TGX gel and immunoblot"}, "[2]": {"biological_target": "the molecule itself", "test": "self-oligomerization in human PBMC from healthy donors; semi-denaturing agarose gel and immunoblot"}, "[3]": {"biological_target": "T1, His-tagged human MAVS-WT expressed in MAVS-deficient MEFs (human, UniProt Q7Z434 1-540, limits assumed)", "T1 construct": "also called His-tagged human WT MAVS; not shown: N-terminal His-tag", "test": "plasma oligomers incubated with mitochondria of MAVS-KO MEFs expressing His-tagged human MAVS-WT; anti-His immunoblot"}, "[4]": {"biological_target": "B1", "test": "plasma oligomers incubated with mitochondria of MAVS-KO MEFs expressing His-tagged human MAVS-C79F; anti-His immunoblot"}, "[5]": {"biological_target": "B2", "test": "purified plasma oligomers incubated with purified mitochondria of MAVS-WT MEFs, mitochondria re-purified; immunoblot"}}}
{"binder": "B1", "values": [{"measurement": "binding result", "setting": "[1]", "value": "binds"}]}
{"binder": "B2", "values": [{"measurement": "binding result", "setting": "[2]", "value": "binds"}, {"measurement": "binding result", "setting": "[3]", "value": "binds"}, {"measurement": "binding result", "setting": "[4]", "value": "binds"}]}
{"binder": "Mouse MAVS, endogenous, on mitochondria of wild-type MEFs and BMDCs (other, UniProt Q8VCF0 1-503, looked up, Endogenous full protein on the outer mitochondrial membrane of mouse cells; also called MAVS-WT (MEF); endogenous MAVS) MTFAEDKTYKYIRDNHSKFCCVDVLEILPYLSCLTASDQDRLRASYRQIGNRDTLWGLFNNLQRRPGWVEVFIRALQICELPGLADQVTRVYQSYLPPGTSLRSLEPLQLPDFPAAVSGPSAFAPGHNIPDHGLRETPSCPKPVQDTQPPESPVENSEQLLQTNSGAVARMSGGSLIPSPNQQALSPQPSREHQEQEPELGGAHAANVASVPIATYGPVSPTVSFQPLPRTALRTNLLSGVTVSALSADTSLSSSSTGSAFAKGAGDQAKAATCFSTTLTNSVTTSSVPSPRLVPVKTMSSKLPLSSKSTAAMTSTVLTNTAPSKLPSNSVYAGTVPSRVPASVAKAPANTIPPERNSKQAKETPEGPATKVTTGGNQTGPNSSIRSLHSGPEMSKPGVLVSQLDEPFSACSVDLAISPSSSLVSEPNHGPEENEYSSFRIQVDESPSADLLGSPEPLATQQPQEEEEHCASSMPWAKWLGATSALLAVFLAVMLYRSRRLAQ", "values": [{"measurement": "binding result", "setting": "[5]", "value": "binds"}]}
